# Test results as given in US20110028686A1 (published 2011).
# Square brackets hold non-standard residues; d marks the D form. Primed or numbered codes have the meaning given here. Ends that are not written are not given here. * marks the point of attachment. acetamidofluorescein″ = acetamidofluorescein (5-iodoacetamidofluorescein attached to the C-terminal Cys); Fluorescein(5-NHCOCH2) = O=C(C*)Nc1ccc2c(c1)C(=O)OC21c2ccc(O)cc2Oc2cc(O)ccc21; pS = N[C@@H](COP(=O)(O)O)C(=O)O
# B1: PPKID6^P (designed binder)
# peptide: GISWPTFEGDDAPVRRL[pS]FFYILLDLYLDAPGVC(Fluorescein(5-NHCOCH2))-NH2
# modifications: N-terminus assumed
# SMILES: CC[C@H](C)[C@H](NC(=O)CN)C(=O)N[C@@H](CO)C(=O)N[C@@H](Cc1c[nH]c2ccccc12)C(=O)N1CCC[C@H]1C(=O)N[C@H](C(=O)N[C@@H](Cc1ccccc1)C(=O)N[C@@H](CCC(=O)O)C(=O)NCC(=O)N[C@@H](CC(=O)O)C(=O)N[C@@H](CC(=O)O)C(=O)N[C@@H](C)C(=O)N1CCC[C@H]1C(=O)N[C@H](C(=O)N[C@@H](CCCNC(=N)N)C(=O)N[C@@H](CCCNC(=N)N)C(=O)N[C@@H](CC(C)C)C(=O)N[C@@H](COP(=O)(O)O)C(=O)N[C@@H](Cc1ccccc1)C(=O)N[C@@H](Cc1ccccc1)C(=O)N[C@@H](Cc1ccc(O)cc1)C(=O)N[C@H](C(=O)N[C@@H](CC(C)C)C(=O)N[C@@H](CC(C)C)C(=O)N[C@@H](CC(=O)O)C(=O)N[C@@H](CC(C)C)C(=O)N[C@@H](Cc1ccc(O)cc1)C(=O)N[C@@H](CC(C)C)C(=O)N[C@@H](CC(=O)O)C(=O)N[C@@H](C)C(=O)N1CCC[C@H]1C(=O)NCC(=O)N[C@H](C(=O)N[C@@H](CSCC(=O)Nc1ccc2c(c1)C(=O)OC21c2ccc(O)cc2Oc2cc(O)ccc21)C(N)=O)C(C)C)[C@@H](C)CC)C(C)C)[C@@H](C)O
# notes: also called PPKID6 (phosphorylated)
# B2: p4102 (designed binder)
# peptide: GPSQPTYPGDDAPVEDLIRFVSRLRYIADLINRYC(5‑iodoacetamidofluorescein)-NH2
# notes: Mutant with a single amino acid deletion in the alpha-helix; Amino terminal portion from aPP (e.g., residues 1-19); also called p4124 (labelled form, by order and mass)
# B3: p4100 (designed binder)
# peptide: GPSQPTYPGDDAPVEDLIRFVGRLLRYFGDEINRYC(5‑iodoacetamidofluorescein)-NH2
# notes: As for p4099: amino terminal portion from aPP (e.g., residues 1-19); also called p4122 (labelled form, by order and mass)
# B4: p4101 (designed binder)
# peptide: GPSQPTYPGDDAPVEDLIRFVGRLLAYFGDDINRYC(5‑iodoacetamidofluorescein)-NH2
# notes: As for p4099: amino terminal portion from aPP (e.g., residues 1-19); also called p4123 (labelled form, by order and mass)
# Target: T1, HisKIX (UniProt P45481 586-672)
# T1 construct: range 586-672; the residue numbers fit mouse CBP; also called His-tagged CBP KIX domain; CBP KIX; not shown: amino-terminal hexahistidine tag and linker of pET15b
# Test: FP with HisKIX
# T1 sequence (P45481 586-672): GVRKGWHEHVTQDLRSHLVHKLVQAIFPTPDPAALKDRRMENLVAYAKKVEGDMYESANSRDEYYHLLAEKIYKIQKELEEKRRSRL
Binder,fold enhancement in affinity over unphosphorylated PPKID6 [fold],ΔΔG relative to unphosphorylated PPKID6 [kcal/mol]
B1,2,-0.5

# Target: T2, CBP KIX, wild type (Example 20) (UniProt P45481 586-665, limits assumed)
# T2 construct: domain: KIX; also called wild type CBP KIX; CBP MX
# Test: FP with CBP KIX
# T2 sequence (P45481 586-665 limits assumed): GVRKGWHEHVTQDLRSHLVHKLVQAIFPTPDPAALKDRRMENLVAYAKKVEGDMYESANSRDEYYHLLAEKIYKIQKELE
row,Binder,ΔΔG relative to wild type PPKID4^P [kcal/mol]
1,GPSQPTYPGDDAPVRRL[pS]FAYILLDLYLDAPGVC(acetamidofluorescein″)-NH2 (designed binder) [PPKID4^P F20A],0.85
2,GPSQPTYAGDDAPVRRL[pS]FFYILLDLYLDAPGVC(acetamidofluorescein″)-NH2 (designed binder) [PPKID4^P P8A],0.33
3,GPSQATYPGDDAPVRRL[pS]FFYILLDLYLDAPGVC(acetamidofluorescein″)-NH2 (designed binder) [PPKID4^P P5A],0.3
4,GPSQPTYPGDDAPVRRA[pS]FFYILLDLYLDAPGVC(acetamidofluorescein″)-NH2 (designed binder) [PPKID4^P L17A],0.07
5,GPSQPTYPGDDAPVRRL[pS]FFYILLDLALDAPGVC(acetamidofluorescein″)-NH2 (designed binder) [PPKID4^P Y27A],0.96
6,GPSQPTYPGDDAPVRRL[pS]FFYILLDLYADAPGVC(acetamidofluorescein″)-NH2 (designed binder) [PPKID4^P L28A],0.18
7,GPSQPTYPGDDAPVRRL[pS]FFYILADLYLDAPGVC(acetamidofluorescein″)-NH2 (designed binder) [PPKID4^P L24A],0.38
8,GASQPTYPGDDAPVRRL[pS]FFYILLDLYLDAPGVC(acetamidofluorescein″)-NH2 (designed binder) [PPKID4^P P2A],0.21

# Target: T1, HisKIX
# Test: FP, fluorescein-labelled peptide titrated with HisKIX, 25 C
row,Binder,Kd [nM]
1,B1,624

# Target: T2, CBP KIX, wild type (Example 20)
# Test: FP, fluorescein-labelled PPKID4^P variant titrated with CBP KIX
row,Binder,Kd [nM]
1,GPSQPTYPGDDAPVRRL[pS]FAYILLDLYLDAPGVC(acetamidofluorescein″)-NH2 (designed binder) [PPKID4^P F20A],2550
2,GPSQPTYAGDDAPVRRL[pS]FFYILLDLYLDAPGVC(acetamidofluorescein″)-NH2 (designed binder) [PPKID4^P P8A],1070
3,GPSQATYPGDDAPVRRL[pS]FFYILLDLYLDAPGVC(acetamidofluorescein″)-NH2 (designed binder) [PPKID4^P P5A],1020
4,GPSQPTYPGDDAPVRRA[pS]FFYILLDLYLDAPGVC(acetamidofluorescein″)-NH2 (designed binder) [PPKID4^P L17A],680
5,GPSQPTYPGDDAPVRRL[pS]FFYILLDLALDAPGVC(acetamidofluorescein″)-NH2 (designed binder) [PPKID4^P Y27A],3090
6,GPSQPTYPGDDAPVRRL[pS]FFYILLDLYADAPGVC(acetamidofluorescein″)-NH2 (designed binder) [PPKID4^P L28A],830
7,GPSQPTYPGDDAPVRRL[pS]FFYILADLYLDAPGVC(acetamidofluorescein″)-NH2 (designed binder) [PPKID4^P L24A],1160
8,GASQPTYPGDDAPVRRL[pS]FFYILLDLYLDAPGVC(acetamidofluorescein″)-NH2 (designed binder) [PPKID4^P P2A],870

# Target: T3, Human recombinant Bcl-2 (1-205), soluble GST-fusion (Santa Cruz Biotechnology) (human, UniProt P10415 1-205)
# T3 construct: Bought; also called GST-Bcl-2; not shown: glutathione S-transferase (GST) fusion partner
# Test: fluorescence emission titration, fluorescein-labelled peptide + serially diluted Bcl-2, 4 C, PBS
# T3 sequence (P10415 1-205): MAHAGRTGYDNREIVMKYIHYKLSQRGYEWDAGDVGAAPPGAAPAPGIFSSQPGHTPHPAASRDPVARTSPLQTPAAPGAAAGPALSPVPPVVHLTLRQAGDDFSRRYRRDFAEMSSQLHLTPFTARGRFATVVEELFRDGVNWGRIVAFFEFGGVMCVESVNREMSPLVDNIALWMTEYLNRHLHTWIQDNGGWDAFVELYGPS
row,Binder,Kd [nM]
1,B2,3700
2,B3,401
3,B4,811
